Test: Pharmacokinetic studies, single s.c. dose in rats, plasma concentration by growth hormone ELISA
Assay type: in vivo
Conditions: single-dose 1 mg/kg bolus s.c., normal male Sprague-Dawley rats; average
Description: Pharmacokinetic properties of PEG-modified growth hormone compounds were compared to each other and to nonPEGylated growth hormone in male Sprague-Dawley rats (261-425 g) obtained from Charles River Laboratories. Catheters were surgically installed into the carotid artery for blood collection. Following successful catheter installation, animals were assigned to treatment groups (three to six per group) prior to dosing. Animals were dosed subcutaneously with 1 mg/kg of compound in a dose volume of 0.41-0.55 ml/kg. Blood samples were collected at various time points via the indwelling catheter and into EDTA-coated microfuge tubes. Plasma was collected after centrifugation, and stored at −80° C. until analysis. Compound concentrations were measured using antibody sandwich growth hormone ELISA kits from either BioSource International (Camarillo, Calif.) or Diagnostic Systems Laboratories (Webster, Tex.). Concentrations were calculated using standards corresponding to the analog that was dosed. Pharmacokinetic parameters were estimated using the modeling program WinNonlin (Pharsight, version 4.1). Noncompartmental analysis with linear-up/log-down trapezoidal integration was used, and concentration data was uniformly weighted.
Plasma concentrations were obtained at regular intervals following a single subcutaneous dose in rats. […] Plasma samples were taken over the regular time intervals and assayed for injected compound as described. […] Concentration vs time curves were evaluated by noncompartmental analysis (Pharsight, version 4.1). Values shown are averages (+/− standard deviation). Cmax: maximum concentration; terminal t1/2: terminal half-life; AUC0→inf: area under the concentration-time curve extrapolated to infinity; MRT: mean residence time; Cl/f: apparent total, plasma clearance; Vz/f: apparent volume of distribution during terminal phase.

For “30KPEG-pAF35(his)hGH: "hGH polypeptides comprising p-acetyl-phenylalanine covalently-linked to 30 kDa PEG at positions 35 and 92" (position 35, His-tagged)”, the “AUC 0->inf” value was 39,918 ng × hr/ml.
With “30KPEG-pAF131(his)hGH: "His-tagged hGH polypeptide comprising non-natural amino acid p-acetyl-phenylalanine covalently linked to 30 kDa PEG at each of six different positions"” the “AUC 0->inf” value was 6,978 ng × hr/ml.
For “30KPEG-pAF134(his)hGH: "His-tagged hGH polypeptide comprising non-natural amino acid p-acetyl-phenylalanine covalently linked to 30 kDa PEG at each of six different positions"”, the “AUC 0->inf” value was 7,304 ng × hr/ml.
For “30KPEG-pAF143(his)hGH: "His-tagged hGH polypeptide comprising non-natural amino acid p-acetyl-phenylalanine covalently linked to 30 kDa PEG at each of six different positions"”, the “AUC 0->inf” value was 17,494 ng × hr/ml.
With “30KPEG-pAF145(his)hGH: "His-tagged hGH polypeptide comprising non-natural amino acid p-acetyl-phenylalanine covalently linked to 30 kDa PEG at each of six different positions"” the “AUC 0->inf” value was 13,162 ng × hr/ml.

First: 30KPEG-pAF35(his)hGH: "hGH polypeptides comprising p-acetyl-phenylalanine covalently-linked to 30 kDa PEG at positions 35 and 92" (position 35, His-tagged)
Second: 30KPEG-pAF131(his)hGH: "His-tagged hGH polypeptide comprising non-natural amino acid p-acetyl-phenylalanine covalently linked to 30 kDa PEG at each of six different positions"
The Cl/f of the first is 4.6-fold lower: 0.583 mL/min/kg for the first, 2.68 mL/min/kg for the second.

First: 30KPEG-pAF134(his)hGH: "His-tagged hGH polypeptide comprising non-natural amino acid p-acetyl-phenylalanine covalently linked to 30 kDa PEG at each of six different positions"
Second: 30KPEG-pAF143(his)hGH: "His-tagged hGH polypeptide comprising non-natural amino acid p-acetyl-phenylalanine covalently linked to 30 kDa PEG at each of six different positions"
The Cl/f of the first is 2.6-fold higher: 2.52 mL/min/kg for the first, 0.983 mL/min/kg for the second.

With “30KPEG-pAF145(his)hGH: "His-tagged hGH polypeptide comprising non-natural amino acid p-acetyl-phenylalanine covalently linked to 30 kDa PEG at each of six different positions"” the Cl/f was 1.47 mL/min/kg.

With “30KPEG-pAF35(his)hGH: "hGH polypeptides comprising p-acetyl-phenylalanine covalently-linked to 30 kDa PEG at positions 35 and 92" (position 35, His-tagged)” the Cmax was 1,885 ng/ml.

“30KPEG-pAF35(his)hGH: "hGH polypeptides comprising p-acetyl-phenylalanine covalently-linked to 30 kDa PEG at positions 35 and 92" (position 35, His-tagged)” and “30KPEG-pAF131(his)hGH: "His-tagged hGH polypeptide comprising non-natural amino acid p-acetyl-phenylalanine covalently linked to 30 kDa PEG at each of six different positions"” are within 1.5-fold of each other in MRT: 19.16 h for the first, 14.28 h for the second.

First: 30KPEG-pAF134(his)hGH: "His-tagged hGH polypeptide comprising non-natural amino acid p-acetyl-phenylalanine covalently linked to 30 kDa PEG at each of six different positions"
Second: 30KPEG-pAF143(his)hGH: "His-tagged hGH polypeptide comprising non-natural amino acid p-acetyl-phenylalanine covalently linked to 30 kDa PEG at each of six different positions"
The MRT of the first is 1.5-fold lower: 12.15 h for the first, 18.83 h for the second.

Substance “30KPEG-pAF145(his)hGH: "His-tagged hGH polypeptide comprising non-natural amino acid p-acetyl-phenylalanine covalently linked to 30 kDa PEG at each of six different positions"” has an MRT of 17.82 h.

“30KPEG-pAF35(his)hGH: "hGH polypeptides comprising p-acetyl-phenylalanine covalently-linked to 30 kDa PEG at positions 35 and 92" (position 35, His-tagged)” and “30KPEG-pAF131(his)hGH: "His-tagged hGH polypeptide comprising non-natural amino acid p-acetyl-phenylalanine covalently linked to 30 kDa PEG at each of six different positions"” are within 1.5-fold of each other in “Terminal t1/2” value: 4.85 h for the first, 4.41 h for the second.

“30KPEG-pAF134(his)hGH: "His-tagged hGH polypeptide comprising non-natural amino acid p-acetyl-phenylalanine covalently linked to 30 kDa PEG at each of six different positions"” and “30KPEG-pAF143(his)hGH: "His-tagged hGH polypeptide comprising non-natural amino acid p-acetyl-phenylalanine covalently linked to 30 kDa PEG at each of six different positions"” are within 1.5-fold of each other in “Terminal t1/2” value: 4.36 h for the first, 6.02 h for the second.

With “30KPEG-pAF145(his)hGH: "His-tagged hGH polypeptide comprising non-natural amino acid p-acetyl-phenylalanine covalently linked to 30 kDa PEG at each of six different positions"” the “Terminal t1/2” value was 5.87 h.

“30KPEG-pAF131(his)hGH: "His-tagged hGH polypeptide comprising non-natural amino acid p-acetyl-phenylalanine covalently linked to 30 kDa PEG at each of six different positions"” and “30KPEG-pAF134(his)hGH: "His-tagged hGH polypeptide comprising non-natural amino acid p-acetyl-phenylalanine covalently linked to 30 kDa PEG at each of six different positions"” are within 1.5-fold of each other in Cmax: 497 ng/mL for the first, 566 ng/mL for the second.

“30KPEG-pAF143(his)hGH: "His-tagged hGH polypeptide comprising non-natural amino acid p-acetyl-phenylalanine covalently linked to 30 kDa PEG at each of six different positions"” and “30KPEG-pAF145(his)hGH: "His-tagged hGH polypeptide comprising non-natural amino acid p-acetyl-phenylalanine covalently linked to 30 kDa PEG at each of six different positions"” are within 1.5-fold of each other in Cmax: 803 ng/mL for the first, 634 ng/mL for the second.
